# Measurements as given in US5710022, “Nuclear mitotic phosphoprotein” (Board of Regents of the University of Texas System, dated 1998).
# T1: purified p56-RB (Homo sapiens (Human), UniProt P06400)
# T1 sequence: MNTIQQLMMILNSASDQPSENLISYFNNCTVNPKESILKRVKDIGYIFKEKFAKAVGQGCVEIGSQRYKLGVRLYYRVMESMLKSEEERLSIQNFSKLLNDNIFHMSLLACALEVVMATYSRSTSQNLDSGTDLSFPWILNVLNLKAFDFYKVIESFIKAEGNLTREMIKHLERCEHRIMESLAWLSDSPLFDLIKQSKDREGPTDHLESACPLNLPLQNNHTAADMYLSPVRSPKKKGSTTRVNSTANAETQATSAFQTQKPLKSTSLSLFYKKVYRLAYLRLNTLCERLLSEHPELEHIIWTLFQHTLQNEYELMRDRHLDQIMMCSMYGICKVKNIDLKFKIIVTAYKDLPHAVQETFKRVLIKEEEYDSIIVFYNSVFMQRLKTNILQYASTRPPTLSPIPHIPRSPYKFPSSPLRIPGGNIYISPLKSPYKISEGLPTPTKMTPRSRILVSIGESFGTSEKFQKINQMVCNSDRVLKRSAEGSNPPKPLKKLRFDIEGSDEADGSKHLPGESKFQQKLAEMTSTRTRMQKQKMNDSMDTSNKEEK
# B1: MBP-10/NB (other)
# chain: LLQGLDEAKNNYIVLQSSVNGLIQEVEDGKQKLEKKDEEISRLKNQIQDQEQLVSKLSQVEGEHQLWKEQNLELRNLTVELEQKIQVLQSKNASLQDTLEVLQSSYKNLENELELTKMDKMSFVEKVNKMTAKETELQREMHEMAQKTAELQEELSGEKNRLAGELQLLLEEIKSSKDQLKELTLENSE
# B2: MBP-10/KN (other)
# chain: LAGELQLLLEEIKSSKDQLKELTLENSELKKSLDCMHKDQVEKEGKVREEIAEYQLRLHEAEKKHQALLLDTNKQYEVEIQTYREKLTSKEECLSSQKLEIDLLKSSKEELNNSLKATTQILEELKKTKMDNLKYVNQLKKENERAQGKMKLLIKSCKQLEEEKEILQKELSQLQAAQEKQKTGTVMDTKVDELTTEIKELKETLEEKTKEADEYLDKYCSLLISHEKLEKAKEMLETQVAHLCSQQSKQDSRGSPLLGPVVPGPSPIPSVTEKRLSSGQNKASGKRQRSSGIWENGGGPTPATPESFSKKSKKAVMSGIHPAEDTEGTEFEPEGLPEVVKKGFADIPTGKTSPYILRRTTMATRTSPRLAAQKLALSPLSLGKENLAESSKPTAGGSRSQKVKVAQRSPVDSGTILREPTTKSVPVNNLPERSPTDSPREGLRVKRGRLVPSPKAGLESKGSENCKVQ
# B3: MBP-10/H (other)
# chain: LLQGLDEAKNNYIVLQSSVNGLIQEVEDGKQKLEKKDEEISRLKNQIQDQEQLVSKLSQVEGEHQLWKEQNLELRNLTVELEQKIQVLQSKNASLQDTLEVLQSSYKNLENELELTKMDKMSFVEKVNKMTAKETELQREMHEMAQKTAELQEELSGEKNRLAGELQLLLEEIKSSKDQLKELTLENSELKKSLDCMHKDQVEKEGKVREEIAEYQLRLHEAEKKHQALLLDTNKQYEVEIQTYREKLTSKEECLSSQKLEIDLLKSSKEELNNSLKATTQILEELKKTKMDNLKYVNQLKKENERAQGKMKLLIKSCKQLEEEKEILQKELSQLQAAQEKQKTGTVMDTKVDELTTEIKELKETLEEKTKEADEYLDKYCSLLISHEKLEKAKEMLETQVAHLCSQQSKQDSRGSPLLGPVVPGPSPIPSVTEKRLSSGQNKA
# B4: GST-1045 (other)
# chain: MSGIHPAEDTEGTEFEPEGLPEVVKKGFADIPTGKTSPYILRRTTM
# B5: MBP-10/NI (other)
# chain: LGPVVPGPSPIPSVTEKRLSSGQNKASGKRQRSSGIWENGGGPTPATPESFSKKSKKAVMSGIHPAEDTEGTEFEPEGLPEVVKKGFADIPTGKTSPYILRRTTMATRTSPRLAAQKLALSPLSLGKENLAESSKPTAGGSRSQKVKVAQRSPVDSGTILREPTTKSVPVNNLPERSPTDSPREGLRVKRGRLVPSPKAGLESKGSENCKVQ
# B6: MBP-T antigen (other)
# chain: MDKVLNREESLQLMDLLGLERSAWGNIPLMRKAYLKKCKEFHPDKGGDEEKMKKMNTLYKKMEDGVKYAHQPDFGGFWDATEIPTYGTDEWEQWWNAFNEENLFCSEEMPSSDDEATADSQHSTPPKKKRKVEDPKDFPSELLSFLSHAVFSNRTLACFAIYTTKEKAALLYKKIMEKYSVTFISRHNSYNHNILFFLTPHRHRVSAINNYAQKLCTFSFLICKGVNKEYLMYSALTRDPFSVIEESLPGGLKEHDFNPEEAEETKQVSWKLVTEYAMETKCDDVLLLLGMYLEFQYSFE
# B7: MBP-10 (other)
# chain: LLQGLDEAKNNYIVLQSSVNGLIQEVEDGKQKLEKKDEEISRLKNQIQDQEQLVSKLSQVEGEHQLWKEQNLELRNLTVELEQKIQVLQSKNASLQDTLEVLQSSYKNLENELELTKMDKMSFVEKVNKMTAKETELQREMHEMAQKTAELQEELSGEKNRLAGELQLLLEEIKSSKDQLKELTLENSELKKSLDCMHKDQVEKEGKVREEIAEYQLRLHEAEKKHQALLLDTNKQYEVEIQTYREKLTSKEECLSSQKLEIDLLKSSKEELNNSLKATTQILEELKKTKMDNLKYVNQLKKENERAQGKMKLLIKSCKQLEEEKEILQKELSQLQAAQEKQKTGTVMDTKVDELTTEIKELKETLEEKTKEADEYLDKYCSLLISHEKLEKAKEMLETQVAHLCSQQSKQDSRGSPLLGPVVPGPSPIPSVTEKRLSSGQNKASGKRQRSSGIWENGGGPTPATPESFSKKSKKAVMSGIHPAEDTEGTEFEPEGLPEVVKKGFADIPTGKTSPYILRRTTMATRTSPRLAAQKLALSPLSLGKENLAESSKPTAGGSRSQKVKVAQRSPVDSGTILREPTTKSVPVNNLPERSPTDSPREGLRVKRGRLVPSPKAGLESKGSENCKVQ
# How the values were obtained:
# purified p56-RB [1] = molecular target: T1, purified p56-RB; test: blot of purified MBP fusion proteins probed with the Rb-sandwich
# purified p56-RB [2] = molecular target: T1, purified p56-RB; test: blot of purified MBP fusion proteins probed with the Rb-sandwich; the faint band in lane 3 is called an artifact in paragraph 24
# Text: (§1) (A) Two identical blots containing seven purified MBP fusion proteins were probed with either the "Rb-sandwich" (lanes 1–7) or with an antibody to MBP (New England Biolabs) (lanes 8–14). […] (B) Similarly, two identical blots of the purified GST-fusion proteins were probed with either the "Rb-sandwich" (lanes 15–17) or with an antibody to GST (lanes 18–20). […] (C) A diagram of the different constructs used in this experiment. […] (D) Sequence comparison of the Rb-binding region of mitosin with the Rb-binding domain of E2F-1 (in bold letters) and neighboring residues (SEQ. ID NOS: 3 and 4). […] Dashed lines indicate conserved residues and solid lines indicate identical residues.
# purified p56-RB [3] = molecular target: T1, purified p56-RB; test: blot of purified GST fusion proteins probed with the Rb-sandwich (figure legend)
# Text: as §1
binder,measurement,setting,value
B1,binding result,purified p56-RB [1],no binding
B2,binding result,purified p56-RB [1],binds
B3,binding result,purified p56-RB [2],no binding
B4,binding result,purified p56-RB [3],binds
B5,binding result,purified p56-RB [1],binds
B6,binding result,purified p56-RB [1],binds
B7,binding result,purified p56-RB [1],binds
